For two molecules, Kd and EC50 results are on record in patent US20250084169A1 (published 2025).

Assay [1] deals with T1, recombinant human Fc gamma RIIIa (CD16a) 158V (human, UniProt P08637 17-208).
For assay [2], the target named is T2, recombinant human Fc gamma RI (CD64) (human, UniProt P12314 16-288).
In assay [3] the target is T3, recombinant human Fc gamma RIIa (CD32a) 131R (human, UniProt P12318 36-218).
T3 sequence (looked up): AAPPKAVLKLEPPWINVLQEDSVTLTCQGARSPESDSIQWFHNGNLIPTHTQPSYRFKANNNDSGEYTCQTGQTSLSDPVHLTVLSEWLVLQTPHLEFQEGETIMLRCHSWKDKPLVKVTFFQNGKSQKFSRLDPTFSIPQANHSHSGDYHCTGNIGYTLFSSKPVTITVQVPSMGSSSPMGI

Assay [4] deals with T4, recombinant human Fc gamma RIIb/c (CD32b/c) (human, UniProt P31994 46-217).
T4 sequence (looked up): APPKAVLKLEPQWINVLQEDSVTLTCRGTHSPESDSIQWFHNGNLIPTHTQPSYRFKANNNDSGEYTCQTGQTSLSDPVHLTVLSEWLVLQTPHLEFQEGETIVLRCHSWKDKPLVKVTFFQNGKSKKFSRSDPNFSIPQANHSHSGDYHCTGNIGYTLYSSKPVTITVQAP

Assay [5] has as its target T5, cynomolgus monkey Fc gamma receptor CD16 (cynomolgus monkey, UniProt Q8SPW2 17-208).
The target in assay [6] is T6, cynomolgus monkey Fc gamma receptor CD32a (cynomolgus monkey).
In assay [7] the target is T7, cynomolgus monkey Fc gamma receptor CD32b (cynomolgus monkey).
In the next assay the target is T8, human CD19 on cells (human, UniProt P15391 20-556).
T8 sequence (looked up): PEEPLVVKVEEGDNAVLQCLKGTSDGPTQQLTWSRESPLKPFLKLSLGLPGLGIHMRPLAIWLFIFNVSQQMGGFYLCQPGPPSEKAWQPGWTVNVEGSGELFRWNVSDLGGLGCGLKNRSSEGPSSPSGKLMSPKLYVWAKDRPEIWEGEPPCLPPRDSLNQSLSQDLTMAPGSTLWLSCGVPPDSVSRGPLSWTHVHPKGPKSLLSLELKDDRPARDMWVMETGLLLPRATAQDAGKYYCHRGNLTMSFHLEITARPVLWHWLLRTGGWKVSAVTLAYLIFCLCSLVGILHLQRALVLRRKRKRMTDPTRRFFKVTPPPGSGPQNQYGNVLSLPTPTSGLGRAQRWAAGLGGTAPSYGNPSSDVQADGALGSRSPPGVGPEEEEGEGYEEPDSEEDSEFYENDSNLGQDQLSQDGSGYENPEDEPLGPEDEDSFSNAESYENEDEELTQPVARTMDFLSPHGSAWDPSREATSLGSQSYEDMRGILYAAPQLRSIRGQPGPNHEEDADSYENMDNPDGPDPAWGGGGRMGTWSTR

Assay [8] concerns the target T9, cynomolgus monkey CD19 on cells (cynomolgus monkey, UniProt A0A2K5W8L9 20-557).
T9 sequence: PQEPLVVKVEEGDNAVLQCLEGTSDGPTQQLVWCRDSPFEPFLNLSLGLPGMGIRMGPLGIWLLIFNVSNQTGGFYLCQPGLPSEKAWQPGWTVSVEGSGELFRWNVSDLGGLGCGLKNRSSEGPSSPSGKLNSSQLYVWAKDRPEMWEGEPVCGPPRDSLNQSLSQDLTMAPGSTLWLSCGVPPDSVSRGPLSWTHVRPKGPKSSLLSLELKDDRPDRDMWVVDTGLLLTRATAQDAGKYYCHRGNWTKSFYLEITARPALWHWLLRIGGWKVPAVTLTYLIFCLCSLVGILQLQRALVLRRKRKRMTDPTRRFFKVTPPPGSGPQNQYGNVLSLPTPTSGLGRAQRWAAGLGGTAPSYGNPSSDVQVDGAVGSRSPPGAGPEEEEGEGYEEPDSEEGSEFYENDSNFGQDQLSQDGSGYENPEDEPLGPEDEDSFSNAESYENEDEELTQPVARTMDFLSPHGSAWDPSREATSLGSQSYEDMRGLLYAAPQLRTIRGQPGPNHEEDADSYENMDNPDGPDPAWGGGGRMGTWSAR

Assay [9] has as its target T10, recombinant human Fc gamma RIIIa (CD16a) 158F (human, UniProt P08637 17-208).
Assay [10] concerns the target T11, recombinant human Fc gamma RIIIb (CD16b) (human, UniProt O75015 17-200).
The target in assay [11] is T1, recombinant human Fc gamma RIIIa …. This is another data set of the same source.
Assay [12] has as its target T12, recombinant cynomolgus monkey CD19 (cynomolgus monkey, UniProt A0A2K5W8L9 20-292).
T12 sequence: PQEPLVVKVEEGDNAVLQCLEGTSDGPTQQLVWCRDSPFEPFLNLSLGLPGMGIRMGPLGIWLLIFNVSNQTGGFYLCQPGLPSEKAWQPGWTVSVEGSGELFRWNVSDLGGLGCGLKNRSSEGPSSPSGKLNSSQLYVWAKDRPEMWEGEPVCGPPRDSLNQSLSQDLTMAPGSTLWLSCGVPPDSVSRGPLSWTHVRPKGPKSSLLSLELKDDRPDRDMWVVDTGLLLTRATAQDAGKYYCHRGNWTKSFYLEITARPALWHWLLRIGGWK

For assay [13], the target named is T2, recombinant human Fc gamma RI (CD64). This is another data set of the same source.
Assay [14] addresses T13, recombinant human Fc gamma RIIa (CD32a) 131H (human, UniProt P12318 36-218).
T13 sequence (looked up): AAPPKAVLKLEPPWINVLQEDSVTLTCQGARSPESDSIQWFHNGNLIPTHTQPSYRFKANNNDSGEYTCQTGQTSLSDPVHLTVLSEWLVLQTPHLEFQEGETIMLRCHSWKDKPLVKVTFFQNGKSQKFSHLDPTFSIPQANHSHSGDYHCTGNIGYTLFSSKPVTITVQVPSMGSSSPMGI

For assay [15], the target named is T3, recombinant human Fc gamma RIIa (CD32a) …. The source holds these as a separate data set.
For assay [16], the target named is T10, recombinant human Fc gamma RIIIa …. This is another data set of the same source.
Assay [17] addresses T11, recombinant human Fc gamma RIIIb (CD16b). This is another data set of the same source.
Assay [18] addresses T4, recombinant human Fc gamma RIIb/c …. This is another data set of the same source.
Assay [19] addresses T1, recombinant human Fc gamma RIIIa …. This is another data set of the same source.
The next assay addresses T14, recombinant human CD19 (human, UniProt P15391 20-291).
T14 sequence (looked up): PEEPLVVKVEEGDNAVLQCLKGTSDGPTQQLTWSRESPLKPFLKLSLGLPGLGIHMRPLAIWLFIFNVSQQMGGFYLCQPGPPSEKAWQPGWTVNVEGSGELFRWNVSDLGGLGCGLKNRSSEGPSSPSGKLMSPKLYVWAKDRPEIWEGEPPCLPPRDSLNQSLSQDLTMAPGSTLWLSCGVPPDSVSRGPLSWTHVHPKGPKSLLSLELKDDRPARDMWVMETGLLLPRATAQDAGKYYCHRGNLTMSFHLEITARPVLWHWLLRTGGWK

Assay [20] addresses T5, cynomolgus monkey Fc gamma receptor CD16. The source holds these as a separate data set.
Assay [21] deals with T6, cynomolgus monkey Fc gamma receptor …. This is another data set of the same source.
The target of assay [22] is T7, cynomolgus monkey Fc gamma receptor …. The source holds these as a separate data set.

Like-named read-outs stand apart in the source and are kept apart here. Where only a bound is given, the exact number is not on record here.

T1 sequence (P08637 17-208 F176V limits assumed): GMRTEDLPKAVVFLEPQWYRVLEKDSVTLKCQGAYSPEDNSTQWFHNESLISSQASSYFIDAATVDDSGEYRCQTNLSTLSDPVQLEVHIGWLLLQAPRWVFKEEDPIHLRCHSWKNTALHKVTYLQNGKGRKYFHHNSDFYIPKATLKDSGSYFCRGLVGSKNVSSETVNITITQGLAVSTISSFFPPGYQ
T2 sequence (P12314 16-288 limits assumed): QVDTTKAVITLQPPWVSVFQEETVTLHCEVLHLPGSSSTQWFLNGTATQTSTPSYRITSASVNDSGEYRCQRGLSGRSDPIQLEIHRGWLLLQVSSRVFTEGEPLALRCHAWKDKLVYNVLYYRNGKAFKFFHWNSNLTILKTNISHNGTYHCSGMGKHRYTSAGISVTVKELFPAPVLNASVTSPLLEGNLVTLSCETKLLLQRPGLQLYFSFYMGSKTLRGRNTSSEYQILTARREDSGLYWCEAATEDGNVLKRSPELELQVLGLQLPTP
T10 sequence (P08637 17-208 limits assumed): as the sequence (P08637 17-208 F176V limits assumed) above, with V160F counted along it
T5 sequence (Q8SPW2 17-208 limits assumed): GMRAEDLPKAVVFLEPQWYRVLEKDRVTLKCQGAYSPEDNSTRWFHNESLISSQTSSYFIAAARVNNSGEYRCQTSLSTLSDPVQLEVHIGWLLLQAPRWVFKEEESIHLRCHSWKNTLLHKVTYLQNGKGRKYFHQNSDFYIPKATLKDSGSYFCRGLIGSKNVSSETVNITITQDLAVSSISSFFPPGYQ
T11 sequence (O75015 17-200 limits assumed): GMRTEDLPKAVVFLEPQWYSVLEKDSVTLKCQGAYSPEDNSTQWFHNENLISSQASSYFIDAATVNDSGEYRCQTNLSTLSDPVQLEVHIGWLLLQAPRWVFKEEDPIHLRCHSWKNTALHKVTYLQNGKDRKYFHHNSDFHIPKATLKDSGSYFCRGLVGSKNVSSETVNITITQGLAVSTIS

B1: B19c66 (antibody, human IgG1, kappa)
light: not shown
heavy: not shown
chain: CPPCPAPELLGGPSVFLFPPKPKDTLMISRTPEVTCVVVDVSHEDPEVKFNWYVDGVEVHNAKTKPREEQYNSTYRVVSVLTVLHQDWLNGKEYKCKVSNKALPAPIEKTISKAKGQPREPQVYVYPPSRDELTKNQVSLTCLVKGFYPSDIAVEWESNGQPENNYKTTPPVLDSDGSFALVSKLTVDKSRWQQGNVFSCSVMHEALHNHYTQKSLSLSPGK
For orientation: Kd means the free concentration of one partner at which half of the binding sites on the other are occupied at equilibrium, for simple one-to-one binding. With B1, the Kd in the assay with CD19 (target of Table 9) was 21.8 nM; in assay [1] it was 234 nM.

B2: Tafasitamab-cxix (research grade biosimilar) (antibody, human IgG1, kappa)
heavy: EVQLVESGGGLVKPGGSLKLSCAASGYTFTSYVMHWVRQAPGKGLEWIGYINPYNDGTKYNEKFQGRVTISSDKSISTAYMELSSLRSEDTAMYYCARGTYYYGTRVFDYWGQGTLVTVSSASTKGPSVFPLAPSSKSTSGGTAALGCLVKDYFPEPVTVSWNSGALTSGVHTFPAVLQSSGLYSLSSVVTVPSSSLGTQTYICNVNHKPSNTKVDKKVEPKSCDKTHTCPPCPAPELLGGPDVFLFPPKPKDTLMISRTPEVTCVVVDVSHEDPEVQFNWYVDGVEVHNAKTKPREEQFNSTFRVVSVLTVVHQDWLNGKEYKCKVSNKALPAPEEKTISKTKGQPREPQVYTLPPSREEMTKNQVSLTCLVKGFYPSDIAVEWESNGQPENNYKTTPPMLDSDGSFFLYSKLTVDKSRWQQGNVFSCSVMHEALHNHYTQKSLSLSPG
light: DIVMTQSPATLSLSPGERATLSCRSSKSLQNVNGNTYLYWFQQKPGQSPQLLIYRMSNLNSGVPDRFSGSGSGTEFTLTISSLEPEDFAVYYCMQHLEYPITFGAGTKLEIKRTVAAPSVFIFPPSDEQLKSGTASVVCLLNNFYPREAKVQWKVDNALQSGNSQESVTEQDSKDSTYSLSSTLTLSKADYEKHKVYACEVTHQGLSSPVTKSFNRGEC
What is called EC50 is the midpoint of the concentration-response curve. Take B2: the Kd is below 0.02 nM in assay [2]; 39.1 nM in assay [3]; 99.4 nM in assay [4]; 49.5 nM in assay [5]; 181 nM in assay [6]; 152 nM in [7]. For the same molecule, the Kd was 15.3 nM in [9]; 62.1 nM in assay [10]; 4.19 nM in assay [11]; 1800 nM in assay [12]; 5.6 nM in [13]; 231 nM in assay [14]. Also, the Kd in [15] was 203 nM; in assay [16], 121 nM; in assay [17] it was 176 nM; in assay [18], 234 nM; in [19] it was 88.9 nM; with recombinant human CD19 it was 1.4 nM. The Kd in [20] turned out to be 1.34 nM; in assay [21], 76.2 nM; in [22], 53 nM. For the same molecule, the EC50 in the assay with human CD19 on cells worked out at 1 nM; in [8], 57 nM.
